The values below come from US20240402194A1 (QATAR FOUNDATION FOR EDUCATION SCIENCE AND COMMUNITY …, published 2024).

The target in one assay is β-synuclein (UniProt Q16143 1-134). Put plainly: Western blot.
For another assay, the target named is γ-synuclein (UniProt O76070 1-127). Description: Western blot. A general note: In western blotting, separated proteins are transferred to a membrane and probed.
Assay [1] deals with α-synuclein aggregates from mouse (mouse, UniProt O55042 1-140). Description: filter retardation assay.
The target of assay [2] is mouse α-synuclein (WT-α-syn from mouse) (mouse, UniProt O55042 1-140). Put plainly: method not named in the sentence (Western blot in the same paragraph).

Chain of β-synuclein (Q16143 whole entry): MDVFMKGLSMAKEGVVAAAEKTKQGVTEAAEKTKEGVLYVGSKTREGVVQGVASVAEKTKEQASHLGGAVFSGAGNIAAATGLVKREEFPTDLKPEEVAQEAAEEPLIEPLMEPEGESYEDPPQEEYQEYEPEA
Chain of γ-synuclein (O76070 whole entry): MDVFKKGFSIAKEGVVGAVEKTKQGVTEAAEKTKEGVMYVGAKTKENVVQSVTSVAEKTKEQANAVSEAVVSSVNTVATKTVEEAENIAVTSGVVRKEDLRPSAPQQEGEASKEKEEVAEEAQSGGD

B1: monoclonal antibody 4B1 produced by the hybridoma 4B1, ATCC Patent Deposit Number PTA-127017 (antibody, mouse IgG1, kappa, V domains shown)
VH: EVKLVESGGGLVQPGGSLKLSCAASGITFSSYTMSWVRQTPEKRLEWVGYISNGGGRTYYPDTVKGRFTISRDNAKNTLYLQMSSLKSEDTAMYYCARQITTAMGYYYAMDYWGQGTSVTVSS
VL: DVVMTQTPLSLPVSLGDQASISCRSSQSLVHSNGNTYLHWYLQKPGQSPKLLISKVSNRFSGVPDRFSGSGSGTDFTLKISRVEAEDLGVYFCSQSTHVPLTFGAGTKLELKR
notes: also called mAb 4B1
For B1, the binding result with β-synuclein and with γ-synuclein was “no binding” in each case.

B2: monoclonal antibody 2A1 (antibody, mouse IgG1, kappa, V domains shown)
VH: QVQLQQPGAELVKPGASVKMSCKASGYTFSSYNLHWVKQTPGQGLEWIGAIYPGNGDTSYNQKFKGKATLTADKSSSTAYMQLSSLTSEDSAVYYCTRRDYYGSRGFAYWGQGTLVTVSA
VL: DIQMNQSPSSLSASLGDTITITCHASQNINVWLSWYQQKPGNIPKLLIYKASNLHTGVPSRFSGSRSGTGFTLTISSLQPEDIATYYCQQGQSFPWTFGGGTKLEIKR
notes: also called mAb 2A1
Turning to B2, the binding result in assay [1] and in assay [2] was “binds” each time.
